The text below walks through data of IntAct's records for PubMed 15908944.

The test addresses forh_dicdi forH (UniProt Q54N00).

Sequence of forh_dicdi forH (Q54N00 whole entry): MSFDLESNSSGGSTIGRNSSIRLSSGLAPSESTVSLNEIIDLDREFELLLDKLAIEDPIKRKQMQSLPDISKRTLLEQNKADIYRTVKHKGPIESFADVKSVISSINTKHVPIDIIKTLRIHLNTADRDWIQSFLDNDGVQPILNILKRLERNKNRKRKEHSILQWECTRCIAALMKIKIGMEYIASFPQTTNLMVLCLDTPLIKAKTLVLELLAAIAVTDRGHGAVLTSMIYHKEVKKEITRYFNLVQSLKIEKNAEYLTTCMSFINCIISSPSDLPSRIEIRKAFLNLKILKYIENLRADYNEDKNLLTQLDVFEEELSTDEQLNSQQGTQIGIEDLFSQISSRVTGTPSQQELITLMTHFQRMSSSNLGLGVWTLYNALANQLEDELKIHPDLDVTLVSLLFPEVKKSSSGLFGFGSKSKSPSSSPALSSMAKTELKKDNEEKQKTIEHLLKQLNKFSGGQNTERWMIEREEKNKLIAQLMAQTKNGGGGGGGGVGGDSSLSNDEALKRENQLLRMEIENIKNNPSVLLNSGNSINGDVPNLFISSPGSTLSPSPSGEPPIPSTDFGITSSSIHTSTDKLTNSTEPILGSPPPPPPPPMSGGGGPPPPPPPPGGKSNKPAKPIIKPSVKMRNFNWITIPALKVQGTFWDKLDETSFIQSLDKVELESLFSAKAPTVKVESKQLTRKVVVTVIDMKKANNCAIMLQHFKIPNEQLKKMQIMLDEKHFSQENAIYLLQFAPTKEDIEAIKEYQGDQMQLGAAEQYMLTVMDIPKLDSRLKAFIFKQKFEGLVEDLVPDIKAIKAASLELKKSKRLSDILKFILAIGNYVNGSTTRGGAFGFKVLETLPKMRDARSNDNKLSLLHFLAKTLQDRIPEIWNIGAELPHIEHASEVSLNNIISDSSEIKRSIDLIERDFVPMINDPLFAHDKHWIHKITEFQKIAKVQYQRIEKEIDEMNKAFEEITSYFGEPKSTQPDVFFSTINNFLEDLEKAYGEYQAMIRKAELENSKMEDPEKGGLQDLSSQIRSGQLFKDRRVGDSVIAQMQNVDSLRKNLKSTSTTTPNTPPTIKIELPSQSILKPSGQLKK

As for “Rho-related protein rac1A (Dictyostelium discoideum (Slime mold)), P34144 G12V”, the “effect of a mutation on the interaction” value is recorded as “decreasing interaction”.
Take “Rho-related protein rac1A (Dictyostelium discoideum (Slime mold)), P34144 T17N”: the “effect of a mutation on the interaction” value is “disrupting interaction”.
